Measurements: patent US20260242478A1 (published 2026)
Where no end group is shown, it is not given here.

B1: Phage-2403 (peptide)
peptide: IEKWCIPQWMCGNP
modifications: cysteine pairing not given here; also: fused to phage pIII (clonal phage display)
B2: Phage-2406 (peptide)
peptide: PDKWCIPQWMCSQM
modifications: cysteine pairing not given here; also: fused to phage pIII (clonal phage display)
B3: Phage-2412 (peptide)
peptide: GEKWCIPDWMCAAA
modifications: cysteine pairing not given here; also: displayed on bacteriophage by fusion to pIII
B4: Phage-2413 (peptide)
peptide: LDMRCTPAWMCEGF
modifications: cysteine pairing not given here; also: displayed on bacteriophage by fusion to pIII
B5: Phage-2414 (peptide)
peptide: VEKWCTPPWMCRFD
modifications: cysteine pairing not given here; also: displayed on bacteriophage by fusion to pIII
B6: Phage-2415 (peptide)
peptide: LWKWCTPPWMCEVS
modifications: cysteine pairing not given here; also: displayed on bacteriophage by fusion to pIII
B7: Phage-2416 (peptide)
peptide: SERWCIPQWMCTAP
modifications: cysteine pairing not given here; also: displayed on bacteriophage by fusion to pIII
B8: Phage-2417 (peptide)
peptide: FDPWCIPLWMCEGM
modifications: cysteine pairing not given here; also: displayed on bacteriophage by fusion to pIII
B9: Phage-2418 (peptide)
peptide: FSKLCIPAWMCSEE
modifications: cysteine pairing not given here; also: displayed on bacteriophage by fusion to pIII
B10: Phage-2466 (peptide, not shown: large carriers)
peptide: VVKWCTPSWMCTGF
modifications: cysteine pairing not given here; also: displayed as fusion to phage pIII
notes: Clonal phage of the Peptide-180 optimisation library, tested as crude supernatant

What follows are binders tested against T1, 006 PSMA Fab (assay: clonal phage ELISA; biotinylated PSMA Fab on neutravidin plate, anti-M13-HRP detection).
T1 construct: Biotinylated and captured on neutravidin-coated plates in the phage ELISA; also called Anti-PSMA Fab
Procedure: (§1) Clonal phage were harvested as crude supernatants and screened via standard ELISAs. […] Prior to the addition of clonal phage. wells were incubated with blocking buffer and PSMA antigen or blocking buffer alone. Without washing or aspirating, clonal phage supernatants were then added to the wells and incubated for a short time. Wells were then washed followed by detection of bound phage using a horse radish conjugated anti-M13 antibody.

Row | Binder | phage binding ELISA signal
1 | FYKWCTPEWMCTVN [Phage-2384] | 1.38
2 | IPKWCTPVWMCAGF [Phage-2385] | 1.38
3 | VEKWCKPEWMCTSL [Phage-2386] | 1.38
4 | DAKWCIPDWMCYGF [Phage-2387] | 1.38
5 | TIKWCTPPWMCIMN [Phage-2388] | 1.38

What follows are binders tested against T1, 006 PSMA Fab (assay: clonal phage ELISA on PSMA Fab-coated plate; competitor: PSMA antigen pre-incubated in the well).
Procedure: as §1

Row | Binder | phage binding ELISA signal in presence of PSMA
6 | FYKWCTPEWMCTVN [Phage-2384] | 0.138
7 | IPKWCTPVWMCAGF [Phage-2385] | 0.0806
8 | VEKWCKPEWMCTSL [Phage-2386] | 0.0692
9 | DAKWCIPDWMCYGF [Phage-2387] | 0.0838
10 | TIKWCTPPWMCIMN [Phage-2388] | 0.103

What follows are binders tested against T2, PSMA Fab (assay: phage ELISA, biotinylated PSMA Fab on neutravidin plate, bound phage detected with anti-M13-HRP).
T2 construct: also called Anti-PSMA Fab; 006 PSMA Fab
Procedure: as §1

Row | Binder | Phage binding ELISA signal, Anti-PSMA Fab
11 | WVKWCTPPWMCEWD [Phage-2389] | 1.38
12 | VFHLCMPPWMCSQD [Phage-2390] | 1.38
13 | FPKWCTPSWMCDFV [Phage-2391] | 1.38
14 | SPKWCTPSWMCELQ [Phage-2392] | 1.38
15 | LEKWCRPAWMCNGM [Phage-2393] | 1.38
16 | LERWCIPDWMCEWP [Phage-2394] | 1.37
17 | ASMWCIPPWMCAED [Phage-2395] | 1.37
18 | EVKWCIPEWMCMVV [Phage-2396] | 1.37
19 | VVKWCTPAWMCELQ [Phage-2397] | 1.37
20 | FGISCTPSWMCEGF [Phage-2398] | 1.37
21 | WEKWCTPAWMCAVA [Phage-2399] | 1.37
22 | DVRWCTPPWMCVAM [Phage-2400] | 1.37
23 | MQHWCVPPWMCQSL [Phage-2401] | 1.37
24 | VMKWCTPEWMCQVF [Phage-2402] | 1.37
25 | B1 | 1.36
26 | HTTWCTPAWMCQGF [Phage-2404] | 1.36

What follows are binders tested against T3, PSMA Fab (006 PSMA Fab) (assay: clonal phage ELISA on biotinylated PSMA Fab captured on neutravidin plates, anti-M13-HRP detection;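 also: crude clonal phage supernatants added to wells preincubated with PSMA antigen or with blocking buffer only (no wash between), briefly incubated, then washed before detecting bound phage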).
T3 construct: In the phage ELISA the PSMA Fab was biotinylated and captured on neutravidin coated plates; also called Anti-PSMA Fab; anti-PSMA Fab
Procedure: as §1

Row | Binder | Phage binding ELISA signal, Anti-PSMA Fab
27 | MEKWCIPSWMCVGM [Phage-2405] | 1.36
28 | B2 | 1.36
29 | TVKWCVPPWMCSVP [Phage-2407] | 1.36
30 | VDHWCTPEWMCVMM [Phage-2408] | 1.36
31 | YIKWCTPPWMCELM [Phage-2409] | 1.35
32 | MHHWCIPAWMCSTE [Phage-2410] | 1.35
33 | QAKWCIPQWMCESY [Phage-2411] | 1.35
34 | B3 | 1.34
35 | B4 | 1.34
36 | B5 | 1.34
37 | B6 | 1.34
38 | B7 | 1.34
39 | B8 | 1.34
40 | B9 | 1.34
41 | VAKWCIPSWMCETV (cysteine pairing not given here; also: displayed as fusion to phage pIII) [Phage-2419] | 1.33
42 | EIKWCIPSWMCNTL (cysteine pairing not given here; also: displayed as fusion to phage pIII) [Phage-2420] | 1.33

Each binder was assayed against T2, PSMA Fab (assay: phage ELISA, biotinylated PSMA Fab on neutravidin plate pre-incubated with PSMA antigen as competitor, anti-M13-HRP).
Procedure: as §1

Row | Binder | Phage binding ELISA signal, Anti-PSMA Fab with PSMA antigen
43 | WVKWCTPPWMCEWD [Phage-2389] | 0.123
44 | VFHLCMPPWMCSQD [Phage-2390] | 0.0997
45 | FPKWCTPSWMCDFV [Phage-2391] | 0.0984
46 | SPKWCTPSWMCELQ [Phage-2392] | 0.06
47 | LEKWCRPAWMCNGM [Phage-2393] | 0.0594
48 | LERWCIPDWMCEWP [Phage-2394] | 0.078
49 | ASMWCIPPWMCAED [Phage-2395] | 0.085
50 | EVKWCIPEWMCMVV [Phage-2396] | 0.0647
51 | VVKWCTPAWMCELQ [Phage-2397] | 0.0757
52 | FGISCTPSWMCEGF [Phage-2398] | 0.0988
53 | WEKWCTPAWMCAVA [Phage-2399] | 0.0716
54 | DVRWCTPPWMCVAM [Phage-2400] | 0.078
55 | MQHWCVPPWMCQSL [Phage-2401] | 0.082
56 | VMKWCTPEWMCQVF [Phage-2402] | 0.0622
57 | B1 | 0.0574
58 | HTTWCTPAWMCQGF [Phage-2404] | 0.0895

These binders were tested against T3, PSMA Fab (006 PSMA Fab) (assay: clonal phage ELISA on captured PSMA Fab, wells pre-incubated with PSMA antigen as competitor (column head not shown, assumed)).

Row | Binder | Phage binding ELISA signal, Anti-PSMA Fab with PSMA antigen
59 | MEKWCIPSWMCVGM [Phage-2405] | 0.0682
60 | B2 | 0.0822
61 | TVKWCVPPWMCSVP [Phage-2407] | 0.0764
62 | VDHWCTPEWMCVMM [Phage-2408] | 0.0963
63 | YIKWCTPPWMCELM [Phage-2409] | 0.15
64 | MHHWCIPAWMCSTE [Phage-2410] | 0.0812
65 | QAKWCIPQWMCESY [Phage-2411] | 0.0648
66 | B3 | 0.0769
67 | B4 | 0.0768
68 | B5 | 0.074
69 | B6 | 0.0864
70 | B7 | 0.0763
71 | B8 | 0.0667
72 | B9 | 0.0956
73 | VAKWCIPSWMCETV (cysteine pairing not given here; also: displayed as fusion to phage pIII) [Phage-2419] | 0.0735
74 | EIKWCIPSWMCNTL (cysteine pairing not given here; also: displayed as fusion to phage pIII) [Phage-2420] | 0.0772

Each binder was assayed against T4, PSMA Fab (biotinylated (site not given)) (assay: phage ELISA on captured biotinylated PSMA Fab, wells pre-incubated with PSMA antigen (competitor: PSMA); anti-M13 HRP detection).
T4 construct: Biotinylated PSMA Fab captured on neutravidin plates in the phage ELISA; also called Anti-PSMA Fab; 006 PSMA Fab

Row | Binder | Phage binding ELISA signal, Anti-PSMA Fab in presence of PSMA
75 | B10 | 0.0837

These binders were tested against T4, PSMA Fab (assay: phage ELISA: clonal phage supernatant on biotinylated PSMA Fab captured on neutravidin plate, blocking buffer alone; anti-M13 HRP detection;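 also: crude clonal phage supernatants added to wells preincubated with blocking buffer, incubated briefly, bound phage detected with a horseradish-conjugated anti-M13 antibody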).
Procedure: as §1

Row | Binder | Phage binding ELISA signal, Anti-PSMA Fab
76 | B10 | 1.24
